In patent publication US20250382363A1 (NUMAB THERAPEUTICS, published 2025):

Key:
[1] = biological target: T1, human a-Mesothelin (Acro Biosystems; MSN_H5223) (human, UniProt Q13421 296-580, limits assumed); assay: SPR, mesothelin immobilised, scFv analyte, 1:1 fit
T1 construct: Bought protein immobilised on the SPR chip; Printed as 'a-Mesothelin' but used as the antigen for the anti-MSLN scFvs; also called Human MSLN; MSLN
Experimental: The mutation variants were then injected at concentrations of 10 nM, 2 nM and 0.4 nM over the ligand-immobilized and reference spots. The wild type variants were used as a control, while an empty spot was used as reference.
After each cycle with analyte, the surface was regenerated with a 3M MgCl₂ solution, thereby allowing the next analyte cycle to have only free ligand available. Binding affinity KD was globally calculated by the Bruker SPR software based on the binding association (kₒₙ) and dissociation (Koff) rate, by fitting a 1:1 Langmuir model to the curves obtained by the cycles with the three different concentrations of the analyte.

[2] = biological target: pre-existing anti-drug antibodies (ADA) present in human sera; assay: pre-existing ADA ELISA, scFv coated, human sera unspiked vs spiked

T1 sequence (Q13421 other isoform, or with tags, fused parts or gaps limits assumed): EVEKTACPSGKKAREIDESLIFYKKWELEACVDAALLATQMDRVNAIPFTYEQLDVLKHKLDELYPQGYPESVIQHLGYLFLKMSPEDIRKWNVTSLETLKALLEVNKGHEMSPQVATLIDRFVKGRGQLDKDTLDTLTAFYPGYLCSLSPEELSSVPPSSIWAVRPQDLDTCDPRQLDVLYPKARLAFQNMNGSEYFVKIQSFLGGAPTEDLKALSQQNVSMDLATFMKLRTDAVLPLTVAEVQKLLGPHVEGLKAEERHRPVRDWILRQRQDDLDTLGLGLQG

Kd [1] [nM]	n-fold to wt [1] [fold]	Mean No of serum samples >30% inhibition (30% CCP) with SCP (serum samples) [2]	No of serum samples >30% inhibition (30% CCP) without SCP (serum samples) [2]	Binder
1.8	1	8	16	PRO1922 (scFv 54-21-H03-sc01) (scFv, also called PRO1922 wt; a-MSLN wt) scFv: DIQMTQSPSSLSASVGDRVTITCQASESIYSSLAWYQQKPGKAPKLLIYLASTLASGVPSRFSGSGSGTDFTLTISSLQPEDFATYYCQSTDYTTSTHRNSFGTGTKVTVLGGGGGSGGGGSGGGGSGGGGSEVQLVESGGGLVQPGGSLRLSCAASGFSFSTTYYMCWVRQAPGKGLEWIGCTNTASSVRTYYATWAKGRFTISRDNSKNTVYLQMNSLRAEDTAVYYCARDMGFADYALNLWGQGTLVTVSS
0.66	0.4	1	4	PRO2936 (scFv 54-21-H03-sc01_(T101S, T146Q)) (scFv, PRO1922 variant; VH substitutions, AHo numbering; also called PRO1922 T101S-T146Q) scFv: DIQMTQSPSSLSASVGDRVTITCQASESIYSSLAWYQQKPGKAPKLLIYLASTLASGVPSRFSGSGSGTDFTLTISSLQPEDFATYYCQSTDYTTSTHRNSFGTGTKVTVLGGGGGSGGGGSGGGGSGGGGSEVQLVESGGGLVQPGGSLRLSCAASGFSFSTTYYMCWVRQAPGKGLEWIGCTNTASSVRTYYATWAKGRFTISRDNSKNTVYLQMNSLRAEDSAVYYCARDMGFADYALNLWGQGTLVQVSS
1.3	0.7	1	6	PRO2942 (scFv 54-21-H03-sc01_(T146R)) (scFv, PRO1922 variant; VH substitution, AHo numbering; also called PRO1922 T146R) scFv: DIQMTQSPSSLSASVGDRVTITCQASESIYSSLAWYQQKPGKAPKLLIYLASTLASGVPSRFSGSGSGTDFTLTISSLQPEDFATYYCQSTDYTTSTHRNSFGTGTKVTVLGGGGGSGGGGSGGGGSGGGGSEVQLVESGGGLVQPGGSLRLSCAASGFSFSTTYYMCWVRQAPGKGLEWIGCTNTASSVRTYYATWAKGRFTISRDNSKNTVYLQMNSLRAEDTAVYYCARDMGFADYALNLWGQGTLVRVSS
1.5	0.8	4	5	PRO2990 (scFv 54-21-H03-sc01_(L12S, V103T, L144T)) (scFv, VH substitutions, AHo numbering; also called PRO1922-L12S-V103T-L144T) scFv: DIQMTQSPSSLSASVGDRVTITCQASESIYSSLAWYQQKPGKAPKLLIYLASTLASGVPSRFSGSGSGTDFTLTISSLQPEDFATYYCQSTDYTTSTHRNSFGTGTKVTVLGGGGGSGGGGSGGGGSGGGGSEVQLVESGGGSVQPGGSLRLSCAASGFSFSTTYYMCWVRQAPGKGLEWIGCTNTASSVRTYYATWAKGRFTISRDNSKNTVYLQMNSLRAEDTATYYCARDMGFADYALNLWGQGTTVTVSS
1.3	0.7	0	0	PRO2930 (scFv 54-21-H03-sc01_(L144K, T146E, S148K)) (scFv, PRO1922 variant; VH substitutions, AHo numbering; also called PRO1922 L144K-T146E-S148K) scFv: DIQMTQSPSSLSASVGDRVTITCQASESIYSSLAWYQQKPGKAPKLLIYLASTLASGVPSRFSGSGSGTDFTLTISSLQPEDFATYYCQSTDYTTSTHRNSFGTGTKVTVLGGGGGSGGGGSGGGGSGGGGSEVQLVESGGGLVQPGGSLRLSCAASGFSFSTTYYMCWVRQAPGKGLEWIGCTNTASSVRTYYATWAKGRFTISRDNSKNTVYLQMNSLRAEDTAVYYCARDMGFADYALNLWGQGTKVEVKS
1.4	0.8	1	6	PRO2931 (scFv 54-21-H03-sc01_(L144K, S148L)) (scFv, PRO1922 variant; VH substitutions, AHo numbering; also called PRO1922 L144K-S148L) scFv: DIQMTQSPSSLSASVGDRVTITCQASESIYSSLAWYQQKPGKAPKLLIYLASTLASGVPSRFSGSGSGTDFTLTISSLQPEDFATYYCQSTDYTTSTHRNSFGTGTKVTVLGGGGGSGGGGSGGGGSGGGGSEVQLVESGGGLVQPGGSLRLSCAASGFSFSTTYYMCWVRQAPGKGLEWIGCTNTASSVRTYYATWAKGRFTISRDNSKNTVYLQMNSLRAEDTAVYYCARDMGFADYALNLWGQGTKVTVLS
1.8	1	3	3	PRO2944 (scFv 54-21-H03-sc01_(T146Q)) (scFv, PRO1922 variant; VH substitution, AHo numbering; also called PRO1922 T146Q) scFv: DIQMTQSPSSLSASVGDRVTITCQASESIYSSLAWYQQKPGKAPKLLIYLASTLASGVPSRFSGSGSGTDFTLTISSLQPEDFATYYCQSTDYTTSTHRNSFGTGTKVTVLGGGGGSGGGGSGGGGSGGGGSEVQLVESGGGLVQPGGSLRLSCAASGFSFSTTYYMCWVRQAPGKGLEWIGCTNTASSVRTYYATWAKGRFTISRDNSKNTVYLQMNSLRAEDTAVYYCARDMGFADYALNLWGQGTLVQVSS
1.9	1.1	0	0	PRO2941 (scFv 54-21-H03-sc01_(T146K)) (scFv, PRO1922 variant; VH substitution, AHo numbering; also called PRO1922 T146K) scFv: DIQMTQSPSSLSASVGDRVTITCQASESIYSSLAWYQQKPGKAPKLLIYLASTLASGVPSRFSGSGSGTDFTLTISSLQPEDFATYYCQSTDYTTSTHRNSFGTGTKVTVLGGGGGSGGGGSGGGGSGGGGSEVQLVESGGGLVQPGGSLRLSCAASGFSFSTTYYMCWVRQAPGKGLEWIGCTNTASSVRTYYATWAKGRFTISRDNSKNTVYLQMNSLRAEDTAVYYCARDMGFADYALNLWGQGTLVKVSS
3.3	1.8	2	4	PRO2943 (scFv 54-21-H03-sc01_(T146E)) (scFv, PRO1922 variant; VH substitution, AHo numbering; also called PRO1922 T146E) scFv: DIQMTQSPSSLSASVGDRVTITCQASESIYSSLAWYQQKPGKAPKLLIYLASTLASGVPSRFSGSGSGTDFTLTISSLQPEDFATYYCQSTDYTTSTHRNSFGTGTKVTVLGGGGGSGGGGSGGGGSGGGGSEVQLVESGGGLVQPGGSLRLSCAASGFSFSTTYYMCWVRQAPGKGLEWIGCTNTASSVRTYYATWAKGRFTISRDNSKNTVYLQMNSLRAEDTAVYYCARDMGFADYALNLWGQGTLVEVSS
3.2	1.8	6	9	PRO2946 (scFv 54-21-H03-sc01_(T101S)) (scFv, PRO1922 variant; VH substitution, AHo numbering; also called PRO1922 T101S) scFv: DIQMTQSPSSLSASVGDRVTITCQASESIYSSLAWYQQKPGKAPKLLIYLASTLASGVPSRFSGSGSGTDFTLTISSLQPEDFATYYCQSTDYTTSTHRNSFGTGTKVTVLGGGGGSGGGGSGGGGSGGGGSEVQLVESGGGLVQPGGSLRLSCAASGFSFSTTYYMCWVRQAPGKGLEWIGCTNTASSVRTYYATWAKGRFTISRDNSKNTVYLQMNSLRAEDSAVYYCARDMGFADYALNLWGQGTLVTVSS
1.6	0.9	0	0	PRO2938 (scFv 54-21-H03-sc01_(L12A, T101S, L144A, T146Q)) (scFv, PRO1922 variant; VH substitutions, AHo numbering; also called PRO1922 L12A-T101S-L144A-T146Q) scFv: DIQMTQSPSSLSASVGDRVTITCQASESIYSSLAWYQQKPGKAPKLLIYLASTLASGVPSRFSGSGSGTDFTLTISSLQPEDFATYYCQSTDYTTSTHRNSFGTGTKVTVLGGGGGSGGGGSGGGGSGGGGSEVQLVESGGGAVQPGGSLRLSCAASGFSFSTTYYMCWVRQAPGKGLEWIGCTNTASSVRTYYATWAKGRFTISRDNSKNTVYLQMNSLRAEDSAVYYCARDMGFADYALNLWGQGTAVQVSS
1.9	1.1	0	5	PRO2937 (scFv 54-21-H03-sc01_(T101S, L144A, T146Q)) (scFv, PRO1922 variant; VH substitutions, AHo numbering; also called PRO1922 T101S-L144A-T146Q) scFv: DIQMTQSPSSLSASVGDRVTITCQASESIYSSLAWYQQKPGKAPKLLIYLASTLASGVPSRFSGSGSGTDFTLTISSLQPEDFATYYCQSTDYTTSTHRNSFGTGTKVTVLGGGGGSGGGGSGGGGSGGGGSEVQLVESGGGLVQPGGSLRLSCAASGFSFSTTYYMCWVRQAPGKGLEWIGCTNTASSVRTYYATWAKGRFTISRDNSKNTVYLQMNSLRAEDSAVYYCARDMGFADYALNLWGQGTAVQVSS
2.1	1.2	1	5	PRO2932 (scFv 54-21-H03-sc01_(L144A, S148N)) (scFv, PRO1922 variant; VH substitutions, AHo numbering; also called PRO1922 L144A-S148N) scFv: DIQMTQSPSSLSASVGDRVTITCQASESIYSSLAWYQQKPGKAPKLLIYLASTLASGVPSRFSGSGSGTDFTLTISSLQPEDFATYYCQSTDYTTSTHRNSFGTGTKVTVLGGGGGSGGGGSGGGGSGGGGSEVQLVESGGGLVQPGGSLRLSCAASGFSFSTTYYMCWVRQAPGKGLEWIGCTNTASSVRTYYATWAKGRFTISRDNSKNTVYLQMNSLRAEDTAVYYCARDMGFADYALNLWGQGTAVTVNS
2.4	1.3	3	5	PRO2918 (scFv 54-21-H03-sc01_(L12R, V103T, L144Q)) (scFv, VH substitutions, AHo numbering; also called PRO1922-L12R-V103T-L144Q) scFv: DIQMTQSPSSLSASVGDRVTITCQASESIYSSLAWYQQKPGKAPKLLIYLASTLASGVPSRFSGSGSGTDFTLTISSLQPEDFATYYCQSTDYTTSTHRNSFGTGTKVTVLGGGGGSGGGGSGGGGSGGGGSEVQLVESGGGRVQPGGSLRLSCAASGFSFSTTYYMCWVRQAPGKGLEWIGCTNTASSVRTYYATWAKGRFTISRDNSKNTVYLQMNSLRAEDTATYYCARDMGFADYALNLWGQGTQVTVSS
3	1.7	0	0	PRO2945 (scFv 54-21-H03-sc01_(T101R)) (scFv, PRO1922 variant; VH substitution, AHo numbering; also called PRO1922 T101R) scFv: DIQMTQSPSSLSASVGDRVTITCQASESIYSSLAWYQQKPGKAPKLLIYLASTLASGVPSRFSGSGSGTDFTLTISSLQPEDFATYYCQSTDYTTSTHRNSFGTGTKVTVLGGGGGSGGGGSGGGGSGGGGSEVQLVESGGGLVQPGGSLRLSCAASGFSFSTTYYMCWVRQAPGKGLEWIGCTNTASSVRTYYATWAKGRFTISRDNSKNTVYLQMNSLRAEDRAVYYCARDMGFADYALNLWGQGTLVTVSS
